The values that follow come from publication PMC8642555 (Nature Communications, 2021).

The target in assay [1] is IgE. As to the kind of experiment: binding studies with purified scFvs (method not given; Supplementary Fig. 3c). The conditions noted are these: read off a plot; for koff: parent: est. 2.5e-3; for kon: parent: est. 1.0e6.
Assay [2] has as its target bIgE-Fc2–4:FcεRIα-Ova complex (UniProt P12319). As to the kind of experiment: bead-based disruption assay. The conditions noted are these: parent: est. 20 µM; read off a plot.
The target in assay [3] is IgE. As to the kind of experiment: binding kinetics (method not named in the legend or citing paragraphs; Supplementary Fig. 1e). The conditions noted are these: parent: est. 2.8e-3 s-1; read off a plot.
The target of a further assay is FcεRI (Homo sapiens) (UniProt P12319). The conditions noted are these: cited from earlier work.
FcεRI (Homo sapiens), sequence (P12319 26-257): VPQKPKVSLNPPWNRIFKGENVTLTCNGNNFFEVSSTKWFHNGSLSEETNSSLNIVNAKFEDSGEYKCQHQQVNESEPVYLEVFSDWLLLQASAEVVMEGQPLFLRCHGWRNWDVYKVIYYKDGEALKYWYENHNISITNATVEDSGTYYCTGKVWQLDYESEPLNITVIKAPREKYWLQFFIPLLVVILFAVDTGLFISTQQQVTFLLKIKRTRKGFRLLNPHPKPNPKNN
Assay [4] deals with disulfide locked IgE-Fc2–4(G335C):FcεRIα(W156C) complex (UniProt P12319). Briefly: BLI; single cycle kinetics; locked complex captured on Ni-NTA tips, coupled with EDC/NHS, nickel chelated with EDTA; anti-IgE agents in a twofold serial dilution from 1600 nM to 100 nM; 2:1 SCK binding model (Clamp-XP). Background: Biolayer interferometry detects binding as a change in optical thickness at a sensor tip.

Assay [5] concerns the target T1, biotinylated IgE-Fc2–4 (human, UniProt P01854 106-427, biotin (Sulfo-NHS-LC-Biotin labelling)).
T1 construct: human IgE heavy chain constant region, Fc fragment with the domains Cε2 to Cε4 (IgE-Fc2–4); PDB 2Y7Q is a cited IgE-Fc2–4:FcεRIα structure and may be another construct; also called bIgE-Fc2–4; biotin-IgE-Fc2–4
Briefly: BLI; Octet-Red 96; biotin-labeled human IgE immobilised on streptavidin tips (~0.5 nm); serial dilution of anti-IgE agents from the lowest concentration (single-cycle kinetics); 1:1 SCK binding model. The settings on record: both partners purified.

Assay [6] deals with Biotinylated full length recombinant IgE (human) (UniProt P01854). Briefly: BLI; biotinylated full length recombinant IgE on streptavidin (SA) tips; single cycle kinetics, five 100 s associations, four 100 s dissociations and a final 600 s dissociation; analyte in two-fold serial dilutions from 50 nM to 1.56 nM; Octet Red 96; 1:1 SCK model in BiaEvaluation 3.0.
Biotinylated full length recombinant IgE (human), sequence (P01854 whole entry, looked up): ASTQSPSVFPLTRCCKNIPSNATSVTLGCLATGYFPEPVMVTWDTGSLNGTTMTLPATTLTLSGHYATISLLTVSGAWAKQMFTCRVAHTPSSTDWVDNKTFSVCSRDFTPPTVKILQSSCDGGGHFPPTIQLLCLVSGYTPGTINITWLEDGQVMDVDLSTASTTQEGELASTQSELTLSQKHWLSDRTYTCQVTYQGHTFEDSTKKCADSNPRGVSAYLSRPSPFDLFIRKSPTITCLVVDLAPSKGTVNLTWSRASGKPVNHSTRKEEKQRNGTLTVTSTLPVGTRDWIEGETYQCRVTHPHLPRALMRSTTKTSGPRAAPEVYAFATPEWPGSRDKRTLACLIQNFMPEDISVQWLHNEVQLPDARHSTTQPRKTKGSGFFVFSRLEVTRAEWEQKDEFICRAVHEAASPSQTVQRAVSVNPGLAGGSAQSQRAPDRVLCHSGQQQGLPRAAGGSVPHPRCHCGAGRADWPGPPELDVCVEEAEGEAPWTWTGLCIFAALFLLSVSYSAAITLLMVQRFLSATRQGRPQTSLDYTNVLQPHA
Assay [7] has as its target T2, biotinylated-IgE-Fc2–4 (human, biotin (Sulfo-NHS-LC-Biotin)).
T2 construct: IgE heavy chain constant region, human, Fc fragment with the domains Cε2, Cε3 and Cε4; the results speak of the KD for free IgE-Fc2–4; also called bIgE-Fc2–4; biotin-IgE-Fc2–4; source: labelled with Sulfo-NHS-LC-Biotin
T2 chain: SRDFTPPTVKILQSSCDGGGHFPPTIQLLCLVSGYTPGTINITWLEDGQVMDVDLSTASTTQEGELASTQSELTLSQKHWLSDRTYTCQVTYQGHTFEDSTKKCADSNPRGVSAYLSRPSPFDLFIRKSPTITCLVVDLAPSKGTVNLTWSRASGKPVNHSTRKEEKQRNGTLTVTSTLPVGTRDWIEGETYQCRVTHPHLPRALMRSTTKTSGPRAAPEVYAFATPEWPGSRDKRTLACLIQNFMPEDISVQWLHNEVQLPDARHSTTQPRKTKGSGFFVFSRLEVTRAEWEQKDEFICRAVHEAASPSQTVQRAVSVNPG
As to the kind of experiment: BLI; Octet-Red 96; biotin-labeled human IgE on streptavidin tips (~0.5 nm); serial dilution of anti-IgE agents from the lowest concentration (single cycle kinetics); 1:1 SCK model. The conditions noted are these: both partners purified.

In assay [8] the target is T3, biotinylated IgE-Fc2–4 (Homo sapiens, UniProt P01854, biotin (Sulfo-NHS-LC-Biotin labelling)).
T3 construct: human IgE heavy chain constant region, Fc fragment with the domains Cε2 to Cε4 (IgE-Fc2–4); PDB 2Y7Q is a cited IgE-Fc2–4:FcεRIα structure and may be another construct; also called bIgE-Fc2–4; biotin-IgE-Fc2–4
Briefly: BLI; Octet-Red 96; biotin-labeled human IgE immobilised on streptavidin tips (~0.5 nm); serial dilution of anti-IgE agents from the lowest concentration (single-cycle kinetics); 1:1 SCK binding model. The conditions noted are these: both partners purified.

The target of assay [9] is T2, biotinylated-IgE-Fc2–4. Briefly: bead-based disruption assay (flow cytometry of beads); FcεRIα-Ova coupled polystyrene beads loaded with 500 nM biotin-IgE-Fc2–4 and washed; serial dilution of anti-IgE agent, 30 min, room temperature, 900 rpm; fixed; remaining bIgE-Fc2–4 stained with PE/Cy5-streptavidin; ID50 from dose response fit. The conditions noted are these: both partners purified. In general terms: A flow cytometer gives signals particle by particle.

bIgE-Fc2–4:FcεRIα-Ova complex, sequence (P12319 whole entry, looked up, tested part not stated, one chain of several): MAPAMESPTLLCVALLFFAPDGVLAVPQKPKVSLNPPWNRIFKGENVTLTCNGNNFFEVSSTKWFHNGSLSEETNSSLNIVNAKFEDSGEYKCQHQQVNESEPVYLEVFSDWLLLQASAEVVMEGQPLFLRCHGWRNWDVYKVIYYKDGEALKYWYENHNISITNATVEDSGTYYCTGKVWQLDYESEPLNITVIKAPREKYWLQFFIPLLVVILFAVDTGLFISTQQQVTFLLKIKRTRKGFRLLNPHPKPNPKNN

In general, koff refers to a measure of how fast the partners let go of each other. The term kon denotes a measure of how fast the partners come together. With “omalizumab single chain variable fragment (scFv) VH:S28N; VH:T53K; VH:D55S; VH:S57E; VH:N59K; VL:Q27K; VL:S28P; VL:Y31G; VL:D32E; VL:M37L”, in the assay with IgE [1], the koff is 0.00026 s⁻¹ and the on-rate constant (kon) was determined as 1.7e+06 M⁻¹ s⁻¹.
For the molecule “omalizumab single chain variable fragment (scFv) VH:G15D; VH:A41T; VH:I52V; VH:D74G; VH:R98K; VH:S100N; VH:H101N; VL:Q27K; VL:Y31S; VL:K46R”, in the assay with IgE [1], the koff came to 0.0016 s⁻¹ and the kon was 2e+06 M⁻¹ s⁻¹.
On to “omalizumab single chain variable fragment (scFv) VH:G15D; VH:I52V; VL:Y31S”, for which, in the assay with IgE [1], the koff was 0.002 s⁻¹ and the kon stood at 1e+06 M⁻¹ s⁻¹.
With “omalizumab single chain variable fragment (scFv) scFvCC (cysteines for a disulfide bond at the VH:VL interface; positions not printed)”, the other: ID50 in assay [2] was found to be 40000 nM. For the same molecule, the off-rate (koff) with IgE [3] turned out to be 0.013 s⁻¹.
The term Kd denotes the equilibrium constant for the complex coming apart. As to IgE (from UniProt P01854), the dissociation constant (Kd) in the assay with FcεRI (Homo sapiens) was 0.1 nM.
In assay [4], “HAE scFv (high-affinity omalizumab variant)” returned a KD of the high affinity site (2:1 model) of 2.86 nM and a KD of the low affinity site (2:1 model) of 25.8 nM.

B1: DARPin E2_79 (designed binder)
chain: MRGSHHHHHHGSDLGKKLLEAARAGQDDEVRILTANGADVNANDYWGHTPLHLAAMLGHLEIVEVLLKNGADVNATGNTGRTPLHLAAWADHLEIVEVLLKHGADVNAQDKFGKTAFDISIDNGNEDLAEILQKL
As for B1, in the assay with biotinylated IgE-Fc2–4 [5], the Kd stood at 1.18 nM, the off-rate constant (koff) came out at 0.00212 s⁻¹ and the association rate constant (kon) is 1.79e+06 M⁻¹ s⁻¹. Also, in assay [6], the dissociation constant Kd stood at 1.18 nM, the off-rate (koff) is 0.00212 s⁻¹ and the on-rate (kon) is 1.79e+06 M⁻¹ s⁻¹.

B2: clone 16 scFv (scFv, V domains shown)
VH: EVQLVESGGGLVQPDGSLRLSCAVSGYNITSGYSWNWIRQTPGKGLEWVASVTYDGSTNYNPSVKGRITISRDGSKNTFYLQMNSLRAEDTAVYYCAKGNNYFGHWHFAVWGQGTLVTVSS
VL: DIQLTQSPSSLSASVGDRVTITCRASKPVDGEGDSYLNWYQQKPGKAPKLLIYAASYLESGVPSRFSGSGSGTYFTLTISSLQPEDFATYYCQQSHEDPYTFGQGTKVEIK
notes: VH of clone 16, from a shuffled library of C02 and HAE; most clones used the C02-VH with sporadic further mutations; VL of clone 16, from a shuffled library of C02 and HAE; most clones used the HAE-VL with sporadic further mutations
B2: the binding result with biotinylated-IgE-Fc2–4 [7] is “binds”.

B3: clone A4 scFv (shuffled C02/HAE omalizumab variant with VL D74G) (scFv, V domains shown)
VH: EVQLVESGGGLVQPDGSLRLSCAVSGYNITSGYSWNWIRQTPGKGLEWVASVTYDGSTNYNPSVKGRITISRDGSKNTFYLQMNSLRAEDTAVYYCAKGNNYFGHWHFAVWGQGTLVTVSS
VL: DIQLTQSPSSLSASVGDRVTITCRASKPVDGEGDSYLNWYQQKPGKAPKLLIYAASYLESGVPSRFSGSGSGTGFTLTISSLQPEDFATYYCQQSHEDPYTFGQGTKVEIK
notes: from a shuffled library of C02 (Sm8) and HAE (Sm7); D74G in the E-strand of VL; D74 counts on the VL domain
In the assay with biotinylated IgE-Fc2–4 [8], B3 had a Kd of 0.377 nM, a koff of 0.000565 s⁻¹ and a kon of 1.5e+06 M⁻¹ s⁻¹.

B4: clone A4 scFv (scFv, V domains shown)
VH: EVQLVESGGGLVQPDGSLRLSCAVSGYNITSGYSWNWIRQTPGKGLEWVASVTYDGSTNYNPSVKGRITISRDGSKNTFYLQMNSLRAEDTAVYYCAKGNNYFGHWHFAVWGQGTLVTVSS
VL: DIQLTQSPSSLSASVGDRVTITCRASKPVDGEGDSYLNWYQQKPGKAPKLLIYAASYLESGVPSRFSGSGSGTGFTLTISSLQPEDFATYYCQQSHEDPYTFGQGTKVEIK
notes: VH of clone A4, from a shuffled library of C02 and HAE; most clones used the C02-VH with sporadic further mutations; VL of clone A4, from a shuffled library of C02 and HAE; most clones used the HAE-VL with sporadic further mutations
Consider B4, for which the binding result with biotinylated-IgE-Fc2–4 [7] was “binds”.

B5: clone 7 scFv (C02 with VL D74H) (scFv, V domains shown)
VH: EVQLVESGGGLVQPDGSLRLSCAVSGYNITSGYSWNWIRQTPGKGLEWVASVTYDGSTNYNPSVKGRITISRDGSKNTFYLQMNSLRAEDTAVYYCAKGNNYFGHWHFAVWGQGTLVTVSS
VL: DIQLTQSPSSLSASVGDRVTITCRASKSVDSDGDSYMNWYQQKPGRAPKLLIYAASYLESGVPSRFSGSGSGTHFTLTISSLQPEDFATYYCQQSHEDPYTFGQGTKVEIK
notes: as the scFv of C02 (Sm8), identical to it beyond D74H in the E-strand of the VL domain; cryo-EM structure with the locked IgE-Fc2–4:FcεRIα complex solved here; D74 counts on the VL domain
Consider B5, for which, in the assay with biotinylated IgE-Fc2–4 [8], binding was characterised by a dissociation constant (Kd) of 0.581 nM, the off-rate constant (koff) is 0.00104 s⁻¹ and the association rate constant (kon) came to 1.79e+06 M⁻¹ s⁻¹.

B6: clone 16 scFv (shuffled C02/HAE omalizumab variant with VL D74Y) (scFv, V domains shown)
VH: EVQLVESGGGLVQPDGSLRLSCAVSGYNITSGYSWNWIRQTPGKGLEWVASVTYDGSTNYNPSVKGRITISRDGSKNTFYLQMNSLRAEDTAVYYCAKGNNYFGHWHFAVWGQGTLVTVSS
VL: DIQLTQSPSSLSASVGDRVTITCRASKPVDGEGDSYLNWYQQKPGKAPKLLIYAASYLESGVPSRFSGSGSGTYFTLTISSLQPEDFATYYCQQSHEDPYTFGQGTKVEIK
notes: from a shuffled library of C02 (Sm8) and HAE (Sm7); D74Y in the E-strand of VL; D74 counts on the VL domain
Take B6: in the assay with biotinylated IgE-Fc2–4 [8], the Kd came to 0.308 nM, the off-rate constant (koff) was 0.000448 s⁻¹ and the kon turned out to be 1.45e+06 M⁻¹ s⁻¹.

B7: clone 7 scFv (scFv, V domains shown)
VH: EVQLVESGGGLVQPDGSLRLSCAVSGYNITSGYSWNWIRQTPGKGLEWVASVTYDGSTNYNPSVKGRITISRDGSKNTFYLQMNSLRAEDTAVYYCAKGNNYFGHWHFAVWGQGTLVTVSS
VL: DIQLTQSPSSLSASVGDRVTITCRASKSVDSDGDSYMNWYQQKPGRAPKLLIYAASYLESGVPSRFSGSGSGTHFTLTISSLQPEDFATYYCQQSHEDPYTFGQGTKVEIK
notes: VH as the VH of C02; VL as the VL of C02 with D74H in the E-strand; Identical to C02 beyond D74H
For the molecule B7, the “fold increase of ID50 against C02” value with biotinylated-IgE-Fc2–4 [9] is 5 fold.
